Consider 13 molecules from patent US7485456 (YEDA RESEARCH AND DEVELOPMENT, dated 2009).

To fix the notation:
B1: intracellular domain of the FAS/APO1 (CD95 receptor) (receptor, UniProt P25445 191-335, looked up)
chain: KRKEVQKTCRKHRKENQGSHESPTLNPETVAINLSDVDLSKYITTIAGVMTLSQVKGFVRKNGVNEAKIDEIKNDNVQDTAEQKVQLLRNWHQLHGKKEAYDTLIKDLKKANLCTLAEKIQTIILKDITSDSENSNFRNEIQSLV
notes: domain: intracellular domain; Two-hybrid construct
B2: TRAF3 (other, UniProt Q13114 1-568, looked up)
chain: MESSKKMDSPGALQTNPPLKLHTDRSAGTPVFVPEQGGYKEKFVKTVEDKYKCEKCHLVLCSPKQTECGHRFCESCMAALLSSSSPKCTACQESIVKDKVFKDNCCKREILALQIYCRNESRGCAEQLMLGHLLVHLKNDCHFEELPCVRPDCKEKVLRKDLRDHVEKACKYREATCSHCKSQVPMIALQKHEDTDCPCVVVSCPHKCSVQTLLRSELSAHLSECVNAPSTCSFKRYGCVFQGTNQQIKAHEASSAVQHVNLLKEWSNSLEKKVSLLQNESVEKNKSIQSLHNQICSFEIEIERQKEMLRNNESKILHLQRVIDSQAEKLKELDKEIRPFRQNWEEADSMKSSVESLQNRVTELESVDKSAGQVARNTGLLESQLSRHDQMLSVHDIRLADMDLRFQVLETASYNGVLIWKIRDYKRRKQEAVMGKTLSLYSQPFYTGYFGYKMCARVYLNGDGMGKGTHLSLFFVIMRGEYDALLPWPFKQKVTLMLMDQGSSRRHLGDAFKPDPNSSSFKKPTGEMNIASGCPVFVAQTVLENGTYIKDDTIFIKVIVDTSDLPDP
notes: Two-hybrid construct
B3: RIP (other, UniProt Q13546 1-671, looked up)
chain: MQPDMSLNVIKMKSSDFLESAELDSGGFGKVSLCFHRTQGLMIMKTVYKGPNCIEHNEALLEEAKMMNRLRHSRVVKLLGVIIEEGKYSLVMEYMEKGNLMHVLKAEMSTPLSVKGRIILEIIEGMCYLHGKGVIHKDLKPENILVDNDFHIKIADLGLASFKMWSKLNNEEHNELREVDGTAKKNGGTLYYMAPEHLNDVNAKPTEKSDVYSFAVVLWAIFANKEPYENAICEQQLIMCIKSGNRPDVDDITEYCPREIISLMKLCWEANPEARPTFPGIEEKFRPFYLSQLEESVEEDVKSLKKEYSNENAVVKRMQSLQLDCVAVPSSRSNSATEQPGSLHSSQGLGMGPVEESWFAPSLEHPQEENEPSLQSKLQDEANYHLYGSRMDRQTKQQPRQNVAYNREEERRRRVSHDPFAQQRPYENFQNTEGKGTAYSSAASHGNAVHQPSGLTSQPQVLYQNNGLYSSHGFGTRPLDPGTAGPRVWYRPIPSHMPSLHNIPVPETNYLGNTPTMPFSSLPPTDESIKYTIYNSTGIQIGAYNYMEIGGTSSSLLDSTNTNFKEEPAAKYQAIFDNTTSLTDKHLDPIRENLGKHWKNCARKLGFTQSQIDEIDHDYERDGLKEKVYQMLQKWVMREGIKGATVGKLAQALHQCSRIDLLSSLIYVSQN
notes: Two-hybrid construct
B4: intracellular domain of the p55 TNF receptor (receptor, UniProt P19438 235-455, looked up)
chain: RYQRWKSKLYSIVCGKSTPEKEGELEGTTTKPLAPNPSFSPTPGFTPTLGFSPVPSSTFTSSSTYTPGDCPNFAAPRREVAPPYQGADPILATALASDPIPNPLQKWEDSAHKPQSLDTDDPATLYAVVENVPPLRWKEFVRRLGLSDHEIDRLELQNGRCLREAQYSMLATWRRRTPRREATLELLGRVLRDMDLLGCLEDIEEALCGPAALPPAPSLLR
notes: domain: intracellular domain; Two-hybrid construct; also called p55-IC
B5: TRADD (other, UniProt Q15628 1-312, looked up)
chain: MAAGQNGHEEWVGSAYLFVESSLDKVVLSDAYAHPQQKVAVYRALQAALAESGGSPDVLQMLKIHRSDPQLIVQLRFCGRQPCGRFLRAYREGALRAALQRSLAAALAQHSVPLQLELRAGAERLDALLADEERCLSCILAQQPDRLRDEELAELEDALRNLKCGSGARGGDGEVASAPLQPPVPSLSEVKPPPPPPPAQTFLFQGQPVVNRPLSLKDQQTFARSVGLKWRKVGRSLQRGCRALRDPALDSLAYEYEREGLYEQAFQLLRRFVQAEGRRATLQRLVEALEENELTSLAEDLLGLTDPNGGLA
notes: Two-hybrid construct
B6: intracellular domain of the CD40 receptor (receptor, UniProt P25942 216-277, looked up)
chain: KKVAKKPTNKAPHPKQEPQEINFPDDLPGSNTAAPVQETLHGCQPVTQEDGKESRISVQERQ
notes: as for B1
B7: MORT1 (other, UniProt Q13158 1-208, looked up)
chain: MDPFLVLLHSVSSSLSSSELTELKFLCLGRVGKRKLERVQSGLDLFSMLLEQNDLEPGHTELLRELLASLRRHDLLRRVDDFEAGAAAGAAPGEEDLCAAFNVICDNVGKDWRRLARQLKVSDTKIDSIEDRYPRNLTERVRESLRIWKNTEKENATVAHLVGALRSCQMNLVADLVQEVQQARDLQNRSGAMSPMSWNSDASTSEAS
notes: Two-hybrid construct; also called FADD; MORT1/FADD
B8: intracellular domain of the p75 TNF receptor (receptor, UniProt P20333 288-461, looked up)
chain: KKKPLCLQREAKVPHLPADKARGTQGPEQQHLLITAPSSSSSSLESSASALDRRAPTRNQPQAPGVEASGAGEARASTGSSDSSPGGHGTQVNVTCIVNVCSSSDHSSQCSSQASSTMGDTDSSPSESPKDEQVPFSKEECAFRSQLETPETLLGSTEEKPLPLGVPDAGMKPS
notes: domain: intracellular domain; Two-hybrid construct; also called p75-IC
B9: construct of the N-terminal part of the TRAF2 molecule, amino-acids 1 to 221 (two-hybrid bait) (other)
chain: MAAASVTPPGSLELLQPGFSKTLLGTKLEAKYLCSACRNVLRRPFQAQCGHRYCSFCLASILSSGPQNCAACVHEGIYEEGISILESSSAFPDNAARREVESLPAVCPSDGCTWKGTLKEYESCHEGRCPLMLTECPACKGLVRLGEKERHLEHECPERSLSCRHCRAPCCGADVKAHHEVCPKFPLTCDGCGKKKIPREKFQDHVKTCGKCRVPCRFHAI
notes: Includes the Ring finger and zinc finger motifs; served as bait in two hybrid tests (fusion partner not spelled out for this construct); also called TRAF2 1-221
B10: construct of the C-terminal part of the TRAF2 molecule, amino acids 222 to 501 (two-hybrid bait) (other)
chain: GCLETVEGEKQQEHEVQWLREHLAMLLSSVLEAKPLLGDQSHAGSELLQRCESLEKKTATFENIVCVLNREVERVAMTAEACSRQHRLDQDKIEALSSKVQQLERSIGLKDLAMADLEQKVLEMEASTYDGVFIWKISDFARKRQEAVAGRIPAIFSPAFYTSRYGYKMCLRIYLNGDGTGRGTHLSLFFVVMKGPNDALLRWPFNQKVTLMLLDQNNREHVIDAFRPDVTSSSFQRPVNDMNIASGCPLFCPVSKMEAKNSYVRDDAIFIKAIVDLTGL
notes: Covers the TRAF-domain and additional 42 amino acids; served as bait in two hybrid tests (fusion partner not spelled out for this construct); also called TRAF2 222-501; C-terminal construct comprising the TRAF domain
B11: Lymphotoxin beta receptor cDNA clones picked from the human B-cell library (two-hybrid prey, GAL4 activation domain fusion) (receptor, UniProt P36941 249-435, looked up, not shown: large carriers)
chain: KSHPSLCRKLGSLLKRRPQGEGPNPVAGSWEPPKAHPYFPDLVQPLLPISGDVSPVSTGLPAAPVLEAGVPQQQSPLDLTREPQLEPGEQSQVAHGTNGIHVTGGSMTITGNIYIYNGPVLGGPPGPGDLPATPEPPYPIPEEGDPGPPGLSTPHQEDGKAWHLAETEHCGATPSNRGPRNQFITHD
B12: TRAF2 cDNA clones picked from the human B-cell library (two-hybrid prey, GAL4 activation domain fusion) (other, not shown: large carriers)
chain: MAAASVTPPGSLELLQPGFSKTLLGTKLEAKYLCSACRNVLRRPFQAQCGHRYCSFCLASILSSGPQNCAACVHEGIYEEGISILESSSAFPDNAARREVESLPAVCPSDGCTWKGTLKEYESCHEGRCPLMLTECPACKGLVRLGEKERHLEHECPERSLSCRHCRAPCCGADVKAHHEVCPKFPLTCDGCGKKKIPREKFQDHVKTCGKCRVPCRFHAIGCLETVEGEKQQEHEVQWLREHLAMLLSSVLEAKPLLGDQSHAGSELLQRCESLEKKTATFENIVCVLNREVERVAMTAEACSRQHRLDQDKIEALSSKVQQLERSIGLKDLAMADLEQKVLEMEASTYDGVFIWKISDFARKRQEAVAGRIPAIFSPAFYTSRYGYKMCLRIYLNGDGTGRGTHLSLFFVVMKGPNDALLRWPFNQKVTLMLLDQNNREHVIDAFRPDVTSSSFQRPVNDMNIASGCPLFCPVSKMEAKNSYVRDDAIFIKAIVDLTGL
B13: protein encoded by new clone number 10, partial NIK (NIK 624-947) (two-hybrid prey, GAL4 activation domain fusion) (enzyme, not shown: large carriers)
chain: PLTAQAIQEGLRKEPIHRVSAAELGGKVNRALQQVGGLKSPWRGEYKEPRHPPPNQANYHQTLHAQPRELSPRAPGPRPAEETTGRAPKLQPPLPPEPPEPNKSPPLTLSKEESGMWEPLPLSSLEPAPARNPSSPERKATVPEQELQQLEIELFLNSLSQPFSLEEQEQILSCLSIDSLSLSDDSEKNPSKASQSSRDTLSSGVHSWSSQAEARSSSWNMVLARGRPTDTPSYFNGVKVQIQSLNGEHLHIREFHRVKVGDIATGISSQIPAAAFSLVTKDGQPVRYDMEVPDSGIDLQCTLAPDGSFAWSWRVKHGQLENRP
notes: also called clone 10; NMPI

For one assay, the target named is full-length NIK (NF-kB inducing kinase) (human, UniProt Q99558 1-947). Put plainly: yeast two-hybrid (results not shown).
Turning to B1, the binding result was “no binding”. On the same count and under the same terms, then B2, with “no binding”. Same read-out and setting: then B3, with “no binding”; and B4, with “no binding”. Turning to B5, the binding result is given as “no binding”. The same measure, in the same setting: as for B6, the entry is “no binding”; as for B7, “no binding”. Consider B8, for which the binding result was “no binding”.

Another assay addresses B13. Nature of the assay: yeast two-hybrid, TRAF2 1-221 as bait. The source says: (§1) In order to narrow down the region on TRAF2 molecule which interact with clones 9, 10 and 15, two additional constructs were made. One construct comprised of the N-terminal part of the TRAF2 molecule, amino-acids 1 to 221, that included the Ring finger and the zinc finger motifs. The second construct included only the C-terminal part of the molecule, amino acids 222 to 501, covering the "TRAF-domain" and additional 42 amino acids. These two constructs were served as baits in two hybrid tests.
In the case of B9, the binding result was “no binding”.

The target in the next assay is B13. Nature of the assay: yeast two-hybrid, TRAF2 222-501 as bait.
Excerpt: as §1
On to B10, for which the binding result is recorded as “binds”.

In the next assay the target is B13. Nature of the assay: yeast two-hybrid specificity test with irrelevant baits.
Turning to B4, the binding result is on record as “no binding”. B7: the binding result was “no binding”.

Regarding B8, the binding result is given as “no binding”.

The target of a further assay is T1, human TRAF2 in pGBT9 vector in conjunction with GAL4 DNA binding domain (two-hybrid bait) (human, UniProt P04386 1-147 (Saccharomyces cerevisiae entry)).
T1 construct: Cloned by PCR from the first methionine to the stop codon; a short linker from the BamHI primer between GAL4 domain and TRAF2 is not spelled out; also called hTRAF2; full length TRAF2 molecule
Put plainly: yeast two-hybrid with TRAF2 bait, lacZ (beta-galactosidase) colour development time. The procedure:
Positive clones picked up in the two hybrid screen were subjected to lacZ color development test in SFY526 yeast cells, following Clontech Laboratories' manual (for details see above mentioned publications and patent applications). In brief, transformants were allowed to grow at 30° C. for 2-4 days until reaching about 2 mm in diameter, then were transferred onto Whatman filters. The filters went through a freeze/thaw treatment in order to permeabilize the cells, then soaked in a buffer (16.1 mg/ml Na_2HPO_4.7H_2O; 5.5 mg/ml NaH_2PO_4.H_2O; 0.75 mg/ml KCl; 0.75 mg/ml MgSO_4.7H_2O, pH=7) containing 0.33 mg/ml X-gal and 0.35 mM β-mercaptoethanol. Colonies were monitored for development of blue color which is an indication for induction of β-galactosidase.
The screen yielded approximately 2000 clones which were able to grow on Trp-, Leu-, His-3AT plates. DNA prepared from 165 randomly selected positive clones served for transient co-transfection of SFY526 yeast strain together with TRAF2 cloned into pGBT9 vector. Assay for β-galactosidase activity was performed on the transformed SFY526 yeast colonies as described in Materials and Methods (v). The blue color that developed was an indication for yeast colonies that contain cDNA encoding a protein or polypeptide that binds to TRAF2.
With B11, the “Color test” value is 10 min. Consider B12, for which the “Color test” value was 10 min. Consider B13, for which the “Color test” value is 15 min.
